Experimental data as given in patent US20240076680 (RHEINISCHE FRIEDRICH-WILHELMS-UNIVERSITÄt BONN, published 2024).

B1: SP8 (ssDNA)
DNA: GGGAGAGGAGGGAGATAGATATCAAAAGGAGGGTAGGTAGTGCTTGGTAGGGAAACTCCGCCGATTTTTCGTGGATGCCACAGGAC
B2: SP7 (ssDNA)
DNA: GGGAGAGGAGGGAGATAGATATCAAAGGAGGGTAGGTAGTGCTTGGTAGGGAAACTCCGCCGATTTTTCGTGGATGCCACAGGAC
B3: SP6 (ssDNA)
DNA: GGGAGAGGAGGGAGATAGATATCAACCCATGGTAGGTATTGCTTGGTAGGGATAGTGGGCTTGATGTTTCGTGGATGCCACAGGAC
B4: SP5 (ssDNA)
DNA: GGGAGAGGAGGGAGATAGATATCAACCATGGTAGGTATTGCTTGGTAGGGATAGTGGGCTTGATGTTTCGTGGATGCCACAGGAC

What was measured:
ACE2 ectodomain (ACE2e) = ACE2 ectodomain (ACE2e) (Homo sapiens, UniProt Q9BYF1 Q9BYF1:19-615); test: flow; conditions: tags: N-terminal myc, C-terminal HRV 3C site and 8xHis; FreeStyle 293F expressed
[1] = target: SARS-CoV-2 spike receptor-binding domain (RBD) (SARS-CoV-2, UniProt P0DTC2 P0DTC2:319-591); test: flow

ACE2 ectodomain (ACE2e), sequence (Q9BYF1 19-615, one chain of several): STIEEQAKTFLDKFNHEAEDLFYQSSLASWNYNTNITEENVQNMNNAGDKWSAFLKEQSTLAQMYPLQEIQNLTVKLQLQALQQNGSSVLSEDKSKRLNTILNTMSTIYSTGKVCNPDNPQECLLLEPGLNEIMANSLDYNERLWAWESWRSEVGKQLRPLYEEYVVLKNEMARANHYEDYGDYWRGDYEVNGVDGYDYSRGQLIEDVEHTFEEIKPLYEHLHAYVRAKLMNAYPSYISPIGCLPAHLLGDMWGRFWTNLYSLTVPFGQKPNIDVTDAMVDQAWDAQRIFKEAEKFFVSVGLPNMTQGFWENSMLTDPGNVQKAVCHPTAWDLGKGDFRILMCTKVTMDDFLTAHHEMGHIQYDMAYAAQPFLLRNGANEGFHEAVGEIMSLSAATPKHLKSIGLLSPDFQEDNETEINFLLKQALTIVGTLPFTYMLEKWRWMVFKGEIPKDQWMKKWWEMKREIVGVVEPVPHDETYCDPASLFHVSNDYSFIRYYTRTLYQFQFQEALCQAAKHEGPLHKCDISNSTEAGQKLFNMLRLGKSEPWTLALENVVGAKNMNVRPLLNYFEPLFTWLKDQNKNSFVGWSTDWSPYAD

Row | Binder | binding result (ACE2 ectodomain (ACE2e)) | binding result [1]
1 | B1 | no binding | no binding
2 | B2 | no binding | no binding
3 | B3 | no binding | no binding
4 | B4 | no binding | no binding
